{"source": "patent US20140162960", "proteins": {"B1": {"name": "ERK1 (extracellular signal-regulated kinase 1), endogenous (protein)", "chain": "AAAAAQGGGGGEPRRTEGVGPGVPGEVEMVKGQPFDVGPRYTQLQYIGEGAYGMVSSAYDHVRKTRVAIKKISPFEHQTYCQRTLREIQILLRFRHENVIGIRDILRASTLEAMRDVYIVQDLMETDLYKLLKSQQLSNDHICYFLYQILRGLKYIHSANVLHRDLKPSNLLINTTCDLKICDFGLARIADPEHDHTGFLTEYVATRWYRAPEIMLNSKGYTKSIDIWSVGCILAEMLSNRPIFPGKHYLDQLNHILGILGSPSQEDLNCIINMKARNYLQSLPSKTKVAWAKLFPKSDSKALDLLDRMLTFNPNKRITVEEALAHPYLEQYYDPTDEPVAEEPFTFAMELDDLPKERLKELIFQETARFQPGVLEAP"}}, "key": {"[1]": {"molecular_target": "myc-tagged mutant IQGAP1 WW domain expressed from lentivirus (pLEX-mycYY)"}, "[2]": {"molecular_target": "T1, myc-tagged IQGAP1 WW domain expressed from lentivirus (pLEX-mycWW)", "T1 chain": "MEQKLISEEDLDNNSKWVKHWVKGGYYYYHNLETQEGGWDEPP"}}}
{"protein": "B1", "values": [{"measurement": "phosphorylated ERK levels (immunoblot)", "setting": "[1]", "value": "Primary normal human keratinocytes infected with this WW domain mutant had normal levels of phosphorylated ERK"}, {"measurement": "pELK1 levels in IP-kinase assay (pERK immunoprecipitate, ELK-1 substrate)", "setting": "[2]", "value": "revealed diminished downstream pELK1 levels as compared to control treated cells"}, {"measurement": "phosphorylated ERK levels (tissue stain and immunoblot)", "setting": "[2]", "value": "WW domain expressing tissue also showed diminished phosphorylated ERK without an effect on total ERK levels"}]}
